Data reported in patent US20260258115A1 (MAPP BIOPHARMACEUTICAL, published 2026).

What was measured:
[1] = molecular target: T1, RSV F on RSV subtype A virus (RSV-A2) (Respiratory Syncytial Virus, subtype A, …, UniProt P03420 26-574); experiment: cell-based or functional assay
[2] = molecular target: T2, RSV postfusion F (postF), F ΔFP trimer, subtype A (Respiratory Syncytial Virus, subtype A, UniProt P03420 26-513); experiment: BLI, IgG on anti-human IgG sensors, 100 nM antigen, apparent KD
[3] = molecular target: T3, RSV prefusion F (preF), DS-Cav1 stabilized trimer, subtype A (Respiratory Syncytial Virus, subtype A, UniProt P03420 26-513); experiment: as above
[4] = molecular target: RSV F on RSV subtype B virus (mKate-RSV B 18537) (Respiratory Syncytial Virus, subtype B, …, UniProt P13843 26-574); experiment: cell-based or functional assay
[5] = molecular target: T1, RSV F on RSV subtype A virus (RSV-A2); experiment: cell-based or functional assay; remark: listed apart in the source
[6] = molecular target: RSV prefusion F (preF), DS-Cav1 (Respiratory syncytial virus, UniProt P03420 26-513); experiment: BLI, IgG on anti-human IgG sensor
RSV F on RSV-A2 virus = RSV F on RSV-A2 virus (Respiratory syncytial virus, RSV-A2, UniProt P03420 26-574); experiment: cell-based or functional assay
[7] = molecular target: RSV postfusion F (postF), F ΔFP (Respiratory syncytial virus, UniProt P03420 26-513); experiment: BLI, IgG on anti-human IgG sensor, 100 nM antigen
[8] = molecular target: T3, RSV prefusion F (preF), DS-Cav1 …; experiment: BLI, apparent IgG KD (Table 9A)
[9] = molecular target: T2, RSV postfusion F (postF), F ΔFP trimer, …; experiment: BLI, IgG (Table 9A)

B1: ADI-41814 (antibody, V domains shown)
VH: EVQLLESGPTLVKPTQTLTLTCTFSGFSLSTFGVGVGWIRQPPGKALECLALIYWDDDKRYSPSLKSRLTITRDTSKNQVVLTMTNMDPVDTATYYCAHRRSSTVTTGFFDYWGRGTLVTVSS
VL: QPVLTQPPSVSGAPGQRVTVSCTGNSSNIGAGHGAHWYQQLPGTAPKLLIYGSTDRPSGVPDRFFGSQSGTSASLVITELRAEDEADYYCQSFDSSLSIWVFGGGTKLTVL
notes: also called Ab 921; Antibody Number 921
- Neutralization IC50 (RSV subtype A) [1]: > 25 µg/mL
- Kd [2]: 0.915 nM
- Kd [3]: 3.39 nM

B2: ADI-20998 (antibody, V domains shown)
VH: QVQLVQSGGGVVQPGRSLRLSCAASGFTLSTYGMHWVRQAPGKGLEWVAVIYYDESNKFYADSVQGRFTISRDDSKNTLFLQMNSLRAEDTAVYYCARESRPRGYSYSDFDSWGQGTLVTVSS
VL: QPGLTQPRSVSGSPGQSVTISCTGTSSDVGTFNYVSWYQQHPGKAPKLMIYDVNQRPSGVPDRFSGSKSGNTASLTISGLQAEDEADYYCCAYAGYYSFGGGTKLTVL
- neut IC50 (ug/ml) subtype B (graham) [4]: > 25 µg/mL
- Neutralization - RSV A2 IC50 (pM) [5]: 74 pM
- neut IC50 (ug/ml) subtype A (graham) [5]: 0.03 µg/mL

B3: ADI-41574 (antibody, V domains shown)
VH: QITLKESGPTLVKPTQTLTLTCTFSGFSLSTSGVGVAWIRQPPGKALEWLALIYWDDDKRYSPSLKSRLTITKDTSKNQVVLTMTNMDPVDTATYYCAHSSVYTTPFDYWGQGSLVTVSS
VL: DIQLTQSPSTLSASVGDRVTITCRASQSISDWLAWYQQKPGKAPKLLIYKAFTLESGVPSRFSGSGSGTEFTLTISSLQPDDFATYYCQQYTSYWTFGQGTKVEIK
notes: also called Ab 850; Antibody Number 850
- binding result [6]: no binding (tested: 100 nM antigen)
- Neutralization IC50 (RSV subtype A) (RSV F on RSV-A2 virus): > 25 µg/mL
- Kd [7]: 123 nM

B4: ADI-14334 (antibody, V domains shown)
VH: EVQLVESGGGLVKPGGSLRLSCAASGVTVSSYYMTWVRQAPGKGLEFISDISSSSTYTNYADSVKGRFTISRDNAKSSLYLQMNNLRAEDTAVYYCARLGITVTGVGYFDLWGRGTLVTVSS
VL: QPGLTQPPSVSGAPGQRVTISCTGSSSNIGAGYDVHWYQQLPGTAPKLLIHDNNNRPSGVPDRFSGSKSGTSASLAITGLQVEDEADYYCQSYDSSLSNYVFGTGTKLTVL
- neut IC50 (ug/ml) subtype B (graham) [4]: 0.11 µg/mL
- Neutralization - RSV A2 IC50 (pM) [5]: 189 pM
- neut IC50 (ug/ml) subtype A (graham) [5]: 0.05 µg/mL

B5: ADI-41562 (antibody, V domains shown)
VH: QVQLVQSGAEVKKPGASVRVSCKTSGYAFSKYGISWVRQAPGQGLEWIGWISAYNENTHFSHKFLGRVTMTTDTSTGIAYMDLRSLKSDDTAVYYCARDWYSLGSDWYFGPMFDYWGQGTLVTVSS
VL: EIVLTQSPDTLSVSPGERATLSCRASQSVTTNLAWYQQKPGHAPRLLIYGASTRATGIPARFSGSGSGTEFTLTISSLQSEDFAIYYCQQYTNWPRTFGQGTKVEIK
notes: also called Ab 842; Antibody Number 842
- binding result [6]: no binding (tested: 100 nM antigen)
- Neutralization IC50 (RSV subtype A) (RSV F on RSV-A2 virus): > 25 µg/mL
- Kd [7]: 0.676 nM

B6: ADI-41576 (antibody, V domains shown)
VH: QVTLKESGPTLVKPTQTLTLSCSFSGFSLSAYAVGVGWIRQPPGKALEWLALIYWDDDKRYSPSLETRLTITKDTSKNQVVLTMTKMDPVDTATYYCVYSYNGYYEYMDVWGNGTTVTVSS
VL: DIVMTQSPATLSLSPGERATLSCRASQSVSNYLAWYQQKPGQAPRLLISGASNRATGIPDRFSGSGSGTDFTLTITTPEPEDFAVYYCQQRNAWPRTFGQGTKVEIK
notes: also called Ab 851; Antibody Number 851
- binding result [6]: no binding (tested: 100 nM antigen)
- Neutralization IC50 (RSV subtype A) (RSV F on RSV-A2 virus): > 25 µg/mL
- Kd [7]: 1.43 nM

B7: ADI-14583 (antibody, V domains shown)
VH: QVQLVQSGAEVKEPGASVKVSCKASGYTFTNYGISWVRQAPGQGLEWLGWISAYNGNIHYAQKVQGRVTMTTDTSTSTGFMELRSLRSDDTAVYYCAREPPVIAAGDFQHWGQGTLVTVSS
VL: ETTLTQSPLSLPVTLGQPASISCRSSQSLVHSNGNTYLSWFQQRPGQSPRRLIYRVSNRDSGVPDRFSGSGSGTDFTLKISRVEAEDVGLYYCMQGTHWPPDFGQGTRLEIK
- neut IC50 (ug/ml) subtype B (graham) [4]: 0.06 µg/mL
- Neutralization - RSV A2 IC50 (pM) [5]: 125 pM
- neut IC50 (ug/ml) subtype A (graham) [5]: 0.05 µg/mL

B8: ADI-41817 (antibody, V domains shown)
VH: QVQLVQSGAEVKKPGESLKISCKGPGYSFTTYWIGWVRQMPGKGLEWMGIIYPGDSDTKYSPSFQGQVTITADKSIATAYLQWSRLKASDTAVYYCATVVTYADNIRWFDSWGQGTLVTVSS
VL: QSALTQPASVSGSPGQSITISCTGTSGDVGGYKFVSWYQHHPGKAPKLVIYDVANRPSGVSDRFSGSKSGTTASLTISGLQAEDEADYYCSSYTSSSTYVFGTGTKVTAL
- Neutralization IC50 (RSV subtype A) [1]: > 25 µg/mL
- Kd [2]: 15.8 nM
- Kd [3]: 6.94 nM

B9: ADI-41805 (antibody, V domains shown)
VH: QVQLVQSGAEVKKPGESLKISCKASGYSFTSYWIAWVRQMPGKGLEWMGIIFPGDSDTRYSPSFQGQVTISADKSISTAYLQWSSLEASDTAMYYCAKSTTYYYYGLDVWGQGTTVTVSS
VL: QPVLTQPASVSGSPGQSITISCTGTSSDVGGYDYVSWYQQYPGKAPKLMIYEVSNRPLGVSNRFSGSRSGYTASLTISGLQAEDETNYYCSSYTSSRTWVFGGGTKLTVL
notes: also called Ab 914; Antibody Number 914
- binding result [6]: no binding (tested: 100 nM antigen)
- Neutralization IC50 (RSV subtype A) (RSV F on RSV-A2 virus): > 25 µg/mL
- Kd [7]: 2 nM

B10: ADI-41556 (antibody, V domains shown)
VH: EVQLLESGGGLVKPGGSLRLSCAASGFSFSSYSMHWVRQAPGKGLEWVSSISSSSTYIYYADSVKGRFTISRDNAKTSLFLQMNSLRAEDTAVYYCARDPYSSGWYWDWGQGTTVTVSS
VL: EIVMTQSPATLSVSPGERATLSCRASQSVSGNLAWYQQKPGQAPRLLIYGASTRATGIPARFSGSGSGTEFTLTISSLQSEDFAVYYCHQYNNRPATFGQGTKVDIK
- binding result [6]: no binding (tested: 100 nM antigen)
- Neutralization IC50 (RSV subtype A) (RSV F on RSV-A2 virus): > 25 µg/mL
- Kd [7]: 2.28 nM

B11: ADI-41553 (antibody, V domains shown)
VH: EVQLVESETEVKKPGASVKVSCKASGYTFTKYGISWVRQAPGQGLEWMGWISAYNGNTMYPHKLLGRVTMTTDTSTSTAYMELRSLRSDDTAVYYCARDQTYYDFWSGYYTYWGQGTLVTVSS
VL: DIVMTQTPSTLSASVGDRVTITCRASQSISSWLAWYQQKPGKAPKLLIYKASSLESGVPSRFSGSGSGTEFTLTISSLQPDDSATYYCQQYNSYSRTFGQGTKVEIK
notes: also called Ab 835; Antibody Number 835
- binding result [6]: no binding (tested: 100 nM antigen)
- Neutralization IC50 (RSV subtype A) (RSV F on RSV-A2 virus): > 25 µg/mL
- Kd [7]: 0.804 nM

B12: ADI-41582 (antibody, V domains shown)
VH: EVQLVESGPGLVKPSQTLSLTCTVSGGPISSGVYYWSWIRQHPGKGLESIGYIYYSGSTHYNPSLKTRVTISLDTSKNQFSLKLSSVTAADTAVYYCARGCSGGSCYLYAFDIWGQGTTVTVSS
VL: QPVLTQPPSVSVAPGQTARITCGGNNIGTKSVHWYQQKPGQAPLLVVYDDSDRPSGIPERFSGSNSGNTATLTISRVEAGDEADFYCQVWDYATDHVVFGGGTKLTVL
notes: also called Ab 856; Antibody Number 856
- binding result [6]: no binding (tested: 100 nM antigen)
- Neutralization IC50 (RSV subtype A) (RSV F on RSV-A2 virus): > 25 µg/mL
- Kd [7]: 0.911 nM

B13: ADI-41610 (antibody, V domains shown)
VH: EVQLLESGGGVVQPGRSLRLSCAASELSFRNYGMHWVRQAPGKGLEWVAVISYDGNDKYYADSVKGRFTISRDNSKKTLYLQMDSLRAEDTAVYYCAKEGAYCGGDCFSSWGQGTLVTVSS
VL: GIQLTQSPSSLSASVGDRVTITCRASQSSSSYLNWYQQKPGKAPKLLIYAASSLQSGVPSRFSGSGSGTDFTLTISSLQPEDFATYYCQQSYSFGGGTKVEIK
notes: also called Ab 884; Antibody Number 884
- binding result [6]: no binding (tested: 100 nM antigen)
- Neutralization IC50 (RSV subtype A) (RSV F on RSV-A2 virus): > 25 µg/mL
- Kd [7]: 0.978 nM

B14: ADI-20974 (antibody, V domains shown)
VH: EVQLVESGGGLVKPGGSLRLSCAASGFSFSSYQINWVRQAPGKGLEWVSSISGGSSYTDYADSIKGRFTISRDNAKKSAFLQMKSLRADDTAVYYCARALMATAGGLAFDIWGQGTMVTVSS
VL: QPVLTQPPSVSGAPGQRVTISCTGSGSNIGAGYDVHWYQQVPGTAPKLLILRNTNRPSGVPDRFSGSKSGTSASLAITGLQAEDEADYYCQSYDRSLSVVFGGGTKLTVL
- Kd [8]: 0.29 nM
- neut IC50 (ug/ml) subtype B (graham) [4]: 0.09 µg/mL
- Neutralization - RSV A2 IC50 (pM) [5]: 75.4 pM
- neut IC50 (ug/ml) subtype A (graham) [5]: 0.003 µg/mL
- binding result [9]: no binding

B15: ADI-41818 (antibody, V domains shown)
VH: EVQLVESGGGLVQPGGSLRLSCAASGFTVNTNYMSWVRQAPGKGLEWVSIIYSSGSTSYADSVKGRFTISRDNSENTLYLQMHTLRAEDTAVYYCVRERTPFYYVSSGYWDSWGQGTLVTVSS
VL: EIVLTQSPGTLSLSPGERATLSCRASQSVDSSYLAWYQQKPGQAPRLLIFGASSRATGIPDRFSGSGSGTDFTLTISRLEPEDFAVYYCQQYGFSYTFGQGTKVEIK
- Neutralization IC50 (RSV subtype A) [1]: > 25 µg/mL
- Kd [2]: 0.347 nM
- Kd [3]: 0.676 nM

B16: ADI-20964 (antibody, V domains shown)
VH: QVQLVQSGAEVKKPGASVKVSCKASGYTFTHYGISWVRQAPGQGLEWMGWISAYNGNTNYAQKLQGRVTMTTDTSTSTAYMEVRSLRYDDTAVYYCARDVPVEAATSPEFWGQGTLVTVSS
VL: DIVMTQTPLSLPVTLGQPASISCRSSQSLVYSDGNTYLSWFQQRPGQSPRRLIYKVSNRDSGVPNRFSGSGSGTDFTLKISRVEAEDVGVYYCVQNTHWPAYTFGQGTKVEIK
- Kd [8]: 0.36 nM
- neut IC50 (ug/ml) subtype B (graham) [4]: 0.14 µg/mL
- Neutralization - RSV A2 IC50 (pM) [5]: 162 pM
- neut IC50 (ug/ml) subtype A (graham) [5]: 0.06 µg/mL
- binding result [9]: no binding
